Results: the supplement of paper PMC11780869

Test system: Bacillus subtilis
Assay: cleaved RNA product abundance (RNA/gDNA barcode ratio) relative to median wild-type variant (ratio to wild type); higher = more accumulation of the downstream cleavage product
Protocol: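 MPRA in B. subtilis. Mutagenized RNase Y cleavage-site regions (9% mutation rate) were inserted into a barcoded reporter mRNA (truncated aprE or tetM). Cells were grown in LB at 37°C to OD600 0.3. The cleaved RNA isoform was gel-purified and its barcodes counted; the RNA:gDNA barcode ratio was normalised to the median wild-type variant, and the median over barcodes is reported per variant. The printed sequence is the variable window only; the reporter flanks are not printed.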

[1] = experiment (reporter, strain, medium): exp 2b: truncated aprE reporter, strain BJT200, cleavage site: cggR-gapA (positions -7 to +36 mutated)
[2] = experiment (reporter, strain, medium): exp 4a: truncated aprE reporter, strain BJT201 with 2% xylose (RNase J1 expressed), cleavage site: cggR-gapA (positions -7 to +36 mutated)
[3] = experiment (reporter, strain, medium): exp 8a: truncated aprE reporter, strain BJT201 with 2% xylose (RNase J1 expressed), cleavage site: glnRA (positions -5 to +31 mutated)
[4] = experiment (reporter, strain, medium): exp 6: tetM reporter, strain 168, cleavage site: cggR-gapA (positions -7 to +36 mutated)

| Sequence | cleaved RNA product abundance [1] | cleaved RNA product abundance [2] | further results |
| --- | --- | --- | --- |
| ACAGACGAAGGAGCCGCAAAGAAGTTATTAAGGGATGAAAAATCACTCAATATAAATATCTCTCACTTATTTAAA | 0.113 | 0.101 |  |
| ACAGACGAAGGAGCCGCAAATAAATTATTAAGGGATGAATAATCCCTCAACATAAATATCTCTCACTTATTTAAA |  | 0.396 |  |
| ACAGACGAAGGAGCCGCAAAGCAGTTATTAAGGGATGAATAATCCCTAAATATAAATATCTCTCACTTATTTAAA |  | 0.591 |  |
| ACAGACGAAGGAGCCGCAAAGAAGTTATTAAGCGATGAATAATCCCTCACTATAAATATCTCTCACTTATTTAAA | 0.0669 | 0.0749 |  |
| ACAGACGAAGGAGCCGCAAAGAAGTACTTAAGGGATGAATAATCCCTCAATATAAATATCTCTCACTTATTTAAA |  | 0.243 |  |
| CGACATGTCCCGCTTCTTTCATTATACCGTTAGCAACTGTTTTGCTATATACATTTACCTTTTAAGAGGAGGAAT |  |  | cleaved RNA product abundance [3]: 2.04 |
| ACAGACGAAGGAGCCGCAAAGAAGTTATAAAGGGATGAATAATCACTCAATATAAATATCTCTCACTTATTTAAA | 0.107 | 0.169 |  |
| ACAGACGAAGGAGCCGCAAAGAAGTTATTAAGGAATGAATAATCCCTCAACATAAATATCTCTCACTTATTTAAA |  | 0.0941 |  |
| ACAGACGAAGGAGCCGCAAAGAAGTTATTAATGGATGAATTATCCCTCAATATAAATATCTCTCACTTATTTAAA | 0.112 | 0.0827 |  |
| CGACATGTCCCGCTTCTTTCATTAATCCGTTAGCAACTGTTTTGCTATATACATTTATGTTTTAAGAGGAGGAAT |  |  | cleaved RNA product abundance [3]: 0.888 |
| ACAGACGAAGGAGCCGCAAAGAAGTTATTAAGGGATGAATAATCCCGTAATATAAATATCTCTCACTTATTTAAA |  | 0.682 |  |
| ACAGACGAAGGAGCCGCTAAGAAGTTATTAAGTGATGAATAATCCCTCAATATAAATATCTCTCACTTATTTAAA |  | 0.167 |  |
| ACAGACGAAGGAGCCGCAAAGAAGTTATTAAGGGATGAATAATCCCTCAATATAAATATGTCTCACTTATTTAAA |  | 0.713 |  |
| ACAGACGAAGGAGCCGCAAAGAAGTTATTAAGGCATGAATAATTCCTCAATATAAATATCTCTCACTTATTTAAA | 0.107 | 0.133 |  |
| ACAGACGAAGGAGCCGCAAAGAAGTTATAAAGGGATAAATAATCCCTCAATATAAATATCTCTCACTTATTTAAA | 0.316 | 0.358 |  |
| ACAGACGAAGGAGCCGCAAAGAAATTATTAAGGGATGAATAATCCCTCAATATAGATATCTCTCACTTATTTAAA |  | 0.474 |  |
| ACAGACGAAGGAGCCGCATAGAAGTTATTAAGGGATGAATAAACCCTCAATATAAATATCTCTCACTTATTTAAA | 0.448 | 0.471 |  |
| CGACATGTCCCGCTTCTTTCATTATCCCGTTAGCAACTGTTTTGCTATATACATTTACCTTTTAAGAGGAGGAAT |  |  | cleaved RNA product abundance [3]: 1.49 |
| ACAGACGAAGGAGCCGCAAAGGAGTTATTAAGGGATGAATAATCCCTCAATATAAATATCTCTCACTTATTTAAA | 1.06 | 0.982 | cleaved RNA product abundance [4]: 0.911 |
| ACAGACGAAGGAGCCGCAATGAAGTTATTAAGGGATGAATGATCCCTCAATATAAATATCTCTCACTTATTTAAA |  | 0.506 |  |

| Sequence | cleaved RNA product abundance [1] | cleaved RNA product abundance [2] | further results |
| --- | --- | --- | --- |
| CGACATGTCCCGCTTCTTTCATTAATCCGTTAGAAACTGTTTTGGTATATACATTTACCTTTTAAGAGGAGGAAT |  |  | cleaved RNA product abundance [3]: 0.104 |
| CGACATGTCCCGCTTCTTTCATTAATCCGTTAGCAACTGGTTTGCTATATACATTTACCTTTTAAGAGGAGGAAT |  |  | cleaved RNA product abundance [3]: 0.811 |
| ACAGACGAAGGAGCCGCAAAGAATTTATTAAGGGATGAATAATCCCTCAAAATAAATATCTCTCACTTATTTAAA | 0.198 | 0.273 |  |
| ACAGACGAAGGAGCCGCAAAGAAGTTATTAAGGTATGAGTAATCCCTCAATATAAATATCTCTCACTTATTTAAA |  | 0.224 |  |
| ACAGACGAAGGAGCCGCAAAGAAGTTATTAAGGGATGAATCATCCCTCAATAAAAATATCTCTCACTTATTTAAA |  | 0.197 |  |
| ACAGACGAAGGAGCCGCAAAGAAGTAATTAAGGGATGAATCATCCCTCAATATAAATATCTCTCACTTATTTAAA |  | 0.314 |  |
| CGACATGTCCCGCTTCTTTCATTAATTCGTTGGCAACTGTTTTGCTATATACATTTACCTTTTAAGAGGAGGAAT |  |  | cleaved RNA product abundance [3]: 0.687 |
| ACAGACGAAGGAGCCGCAAAGAAGTTATTAAGGAATGAATAAACCCTCAATATAAATATCTCTCACTTATTTAAA | 0.0981 | 0.11 |  |
| ACAGACGAAGGAGCCGCAAAGAAGTTATTAAACGATGAATAATCCCTCAATATAAATATCTCTCACTTATTTAAA | 0.0904 | 0.109 |  |
| ACAGACGAAGGAGCCGCAAACAAGTTATGAAGGGATGAATAATCCCTCAATATAAATATCTCTCACTTATTTAAA |  | 0.239 |  |
| ACAGACGAAGGAGCCGCAAATAAATAATTAAGGGATGAATAATCCCTCAATATAAATATCTCTCACTTATTTAAA |  | 0.336 |  |
| ACAGACGAAGGAGCCGCAAAGAAGTTATTAAAGGATGAATAATTCCTCAATATAAATATCTCTCACTTATTTAAA | 0.0999 | 0.172 |  |
| ACAGACGAAGGAGCCGCAAAGAAGTTATGAAGGGATGAATAATCCCTTAATATAAATATCTCTCACTTATTTAAA |  | 0.789 |  |
| ACAGACGAAGGAGCCGCAAAGAAGTTATTAAGGGATGAATAATCCATCAATATAAATATCTCTCACTTATTTAAA | 0.184 | 0.23 | cleaved RNA product abundance [4]: 0.201 |
| CGACATGTCCCGCTTCTTTCATTAATCCGTTAGCAACTGTTTTACTCTATACATTTACCTTTTAAGAGGAGGAAT |  |  | cleaved RNA product abundance [3]: 0.597 |
| ACAGACGAAGGAGCCGCAAAGGAGCTATTAAGGGATGAATAATCCCTCAATATAAATATCTCTCACTTATTTAAA | 0.502 |  |  |
| ACAGACGAAGGAGCCGCAAAGCAGTTATTAAGGGATGAATAATCGCTCAATATAAATATCTCTCACTTATTTAAA | 0.083 |  |  |
| ACAGACGAAGGAGCCGCAAAGAAGTTTTTAAGGGATGAATAAACCCTCAATATAAATATCTCTCACTTATTTAAA |  | 0.17 |  |
| ACAGACGAAGGAGCCGCAAAGAAATTATTAAGGGATAAATAATCCATCAATATAAATATCTCTCACTTATTTAAA |  | 0.216 |  |
| ACAGACGAAGGAGCCGCAAAGAACTTATTAAGGGATGAAAAATCCCTCAATATAAATATCTCTCACTTATTTAAA |  | 0.521 |  |

| Sequence | cleaved RNA product abundance [1] | cleaved RNA product abundance [2] | further results |
| --- | --- | --- | --- |
| CGACATGTCCCGCTTCTTTCATTAATCCGTTAGCAACTGTTGTGCTATAAACATTTACCTTTTAAGAGGAGGAAT |  |  | cleaved RNA product abundance [3]: 0.453 |
| CGACATGTCCCGCTTCTTTCATTAATCCGTTAACAACTGTTTTGCTATATACATTTAACTTTTAAGAGGAGGAAT |  |  | cleaved RNA product abundance [3]: 0.24 |
| ACAGACGAAGGAGCCGCAAAGAAGTTATTAAGGGATGAATAATCGCTCAATATATATATCTCTCACTTATTTAAA | 0.113 | 0.0772 |  |
| ACAGACGAAGGAGCCGCAAATAAGTTGTTAAGGGATGAATAATCCCTCAATATAAATATCTCTCACTTATTTAAA |  | 0.458 |  |
| ACAGACGAAGGAGCCGCAAAGAAGTTATTAAGCGATGAATAATCCGTCAATATAAATATCTCTCACTTATTTAAA |  | 0.139 |  |
| ACAGACGAAGGAGCCGCAAAGAAGTTATTAAGGGATGAATAATCCCTCAATATATAAATCTCTCACTTATTTAAA |  | 1.13 |  |
| ACAGACGAAGGAGCCGCAAAGACGTTATTAAGGGATGAATAATCCCTCTATATAAATATCTCTCACTTATTTAAA |  | 0.572 |  |
| ACAGACGAAGGAGCCGCAAAGAAGTTATTAAAAGATTAATAATCCCTCAATATAAATATCTCTCACTTATTTAAA | 0.104 |  |  |
| ACAGACGAAGGAGCCGCAAAGAAGTTATTAGGGGTTGAATAATCCCTCAATATAAATATCTCTCACTTATTTAAA |  | 0.254 |  |
| CGACATGTCCCGCTTCTTTCATTAATCCGTTATTAACTGTTTTGCTATATACATTTACCTTTTAAGAGGAGGAAT |  |  | cleaved RNA product abundance [3]: 0.337 |
| ACAGACGAAGGAGCCGCAAAGAAGTTATTAAGTGATGAATAATCCCACAATATAAATATCTCTCACTTATTTAAA | 0.0986 | 0.0805 |  |
| ACAGACGAAGGAGCCGCAAAGAAGTTATTAAGGGATGAATAATCCCTCAATATAAATGACTCTCACTTATTTAAA |  | 1.3 |  |
| ACAGACGAAGGAGCCGCAAAGAAGTTATTAACGGATGAATAATCCCTCAATAAAAATATCTCTCACTTATTTAAA |  | 0.08 |  |
| ACAGACGAAGGAGCCGCAAAGAAGTTATTAAGGGATGGATAATTCCTCAATATAAATATCTCTCACTTATTTAAA |  | 0.58 |  |
| ACAGACGAAGGAGCCGCAAAGAAGTTCTTAAGGGATGAATTATCCCTCAATATAAATATCTCTCACTTATTTAAA |  | 0.126 |  |
| CGACATGTCCCGCTTCTTTCATTAATCCGTTAGCGACTGTTTTGCTATATACATTTACCTTTTAAGAGGAGGAAT |  |  | cleaved RNA product abundance [3]: 0.385 |
| ACAGACGAAGGAGCCGCAAAGAAGTTATTAAGGAATGAATAATCCCTCAATATAAACATCTCTCACTTATTTAAA |  | 0.121 |  |
| ACAGACGAAGGAGCCGCAAAGTAGTTATTAAGGGATCAATAATCCCTCAATATAAATATCTCTCACTTATTTAAA |  | 1.25 |  |
